Read-outs that look alike come from different tables or passages of the source.
Assays:
Assay in all cases: SPR
human VEGF (hVEGF) [1] = target: T1, human VEGF (hVEGF) (human, UniProt P15692 181-395)
T1 construct: also called VEGF-A
T1 sequence: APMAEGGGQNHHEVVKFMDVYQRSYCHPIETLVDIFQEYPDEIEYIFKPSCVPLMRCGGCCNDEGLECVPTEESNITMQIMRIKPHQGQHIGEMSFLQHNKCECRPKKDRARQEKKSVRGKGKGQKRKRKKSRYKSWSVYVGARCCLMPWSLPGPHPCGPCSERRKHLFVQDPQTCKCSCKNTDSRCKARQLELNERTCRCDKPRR
Excerpt: (§1) To determine the binding affinity of selected Fab variants, SPR measurement with a BIACORE® T200 instrument was used. Briefly, series S sensor chip CM5 was activated with 1-ethyl-3-(3-dimethylaminopropyl) carbodiimide (EDC) and N-hydroxysuccinimide (NHS) reagents according to the supplier's instructions, and human VEGF (hVEGF) was coupled to achieve 50-80 response units (RU), then following by blocking un-reacted groups with 1M ethanolamine.
(§2) Three-fold serial dilutions of Fab in HBS-P buffer (0.01 M HEPES pH 7.4, 0.15 M NaCl, 0.005% surfactant P20) from low (0.02 nM) to high (50 nM) were injected (flow rate: 30 μl/min). The binding responses on hVEGF were corrected by subtracting of RU from a blank flow cell. The sensorgram was recorded and subject to reference and buffer subtraction before evaluating by BIACORE® T200 Evaluation Software (version 2.0). Association rates (kₒₙ) and dissociation rates (koff) were calculated using a simple one-to-one Langmuir binding model. The equilibrium dissociation constant (Kd) was calculated as the ratio koff/kₒₙ.

human VEGF (hVEGF) [2] = target: T1, human VEGF (hVEGF); remark: listed apart in the source
Excerpt: as §1, §2

human VEGF (hVEGF) [3] = target: T1, human VEGF (hVEGF); remark: listed apart in the source
Excerpt: as §1, §2

B1: G6.31 Y58R.N94A.F83A (Fab, name in Kabat numbering, V domains shown)
VH: EVQLVESGGGLVQPGGSLRLSCAASGFTISDYWIHWVRQAPGKGLEWVAGITPAGGYTRYADSVKGRFTISADTSKNTAYLQMNSLRAEDTAVYYCARFVFFLPYAMDYWGQGTLVTVSS
VL: DIQMTQSPSSLSASVGDRVTITCRASQDVSTAVAWYQQKPGKAPKLLIYSASFLYSGVPSRFSGSGSGTDFTLTISSLQPEDAATYYCQQGYGAPFTFGQGTKVEIK
notes: Fab
Fold improved (relative to WT) (human VEGF (hVEGF) [1]): 3.9 fold | Kd (human VEGF (hVEGF) [1]): 0.135 nM | koff (human VEGF (hVEGF) [1]): 0.000301 s⁻¹ | kon (human VEGF (hVEGF) [1]): 2.22e+06 M⁻¹ s⁻¹

B2: HCLC4 (Fab, V domains shown)
VH: EEQLVEEGGGLVQPGESLELSCAASGFEISDYWIHWVRQEPGEGLEWVAGITPAGGYEYYADSVEGRFTISADTSENTAYLQMNELRAEDTAVYYCARFVFFLPYAMDYWGQGELVTVSS
VL: DIQMTQSPSSLSASVGDEVTITCRASQDVSTAVAWYQQKPGKAPKLLIYSASFLYSGVPSRFSGSGSGTDFTLTISSLQPEDAATYYCQQGYGAPFTFGQGTKVEIK
notes: Fab
Kd (human VEGF (hVEGF) [2]): 0.299 nM | koff (human VEGF (hVEGF) [2]): 0.000608 s⁻¹ | kon (human VEGF (hVEGF) [2]): 2.03e+06 M⁻¹ s⁻¹ | Kd (human VEGF (hVEGF) [3]): 0.299 nM | koff (human VEGF (hVEGF) [3]): 0.000608 s⁻¹ | kon (human VEGF (hVEGF) [3]): 2.03e+06 M⁻¹ s⁻¹

B3: HCLC5 (Fab, V domains shown)
VH: EEQLVEEGGGLVQPGESLELSCAASGFEISDYWIHWVRQEPGEGLEWVAGITPAGGYEYYADSVEGRFTISADTSENTAYLQMNELRAEDTAVYYCARFVFFLPYAMDYWGQGELVTVSS
VL: DIQMTQSPSSLSASVGDRVTITCRASQDVSTAVAWYQQKPGKAPKLLIYSASFLYSGVPSRFSGSGSGTDFTLTISSLQPEDAATYYCQQGYGAPFTFGQGTKVEIK
notes: Fab
Kd (human VEGF (hVEGF) [2]): 0.316 nM | koff (human VEGF (hVEGF) [2]): 0.000573 s⁻¹ | kon (human VEGF (hVEGF) [2]): 1.81e+06 M⁻¹ s⁻¹ | Kd (human VEGF (hVEGF) [3]): 0.316 nM | koff (human VEGF (hVEGF) [3]): 0.000573 s⁻¹ | kon (human VEGF (hVEGF) [3]): 1.81e+06 M⁻¹ s⁻¹

B4: HCLC3 (Fab, V domains shown)
VH: EEQLVEEGGGLVQPGESLELSCAASGFEISDYWIHWVRQEPGEGLEWVAGITPAGGYEYYADSVEGRFTISADTSENTAYLQMNELRAEDTAVYYCARFVFFLPYAMDYWGQGELVTVSS
VL: DIQMTQSPESLSASVGDEVTITCRASQDVSTAVAWYQQKPGEAPKLLIYSASFLYSGVPSRFSGSGSGTDFTLTISSLQPEDAATYYCQQGYGAPFTFGQGTKVEIK
notes: Fab
Kd (human VEGF (hVEGF) [2]): 0.33 nM | koff (human VEGF (hVEGF) [2]): 0.000608 s⁻¹ | kon (human VEGF (hVEGF) [2]): 1.84e+06 M⁻¹ s⁻¹ | Kd (human VEGF (hVEGF) [3]): 0.33 nM | koff (human VEGF (hVEGF) [3]): 0.000608 s⁻¹ | kon (human VEGF (hVEGF) [3]): 1.84e+06 M⁻¹ s⁻¹

B5: HCLC1 (Fab, V domains shown)
VH: EEQLVEEGGGLVQPGESLELSCAASGFEISDYWIHWVRQEPGEGLEWVAGITPAGGYEYYADSVEGRFTISADTSENTAYLQMNELRAEDTAVYYCARFVFFLPYAMDYWGQGELVTVSS
VL: DIQMTQSPESLSASVGDEVTITCRASQDVSTAVAWYQQKPGKAPKLLIYSASFLYSGVPSRFSGSGSGTDFTLTISSLQPEDAATYYCQQGYGAPFTFGQGTKVEIK
notes: Fab
Kd (human VEGF (hVEGF) [2]): 0.442 nM | koff (human VEGF (hVEGF) [2]): 0.000607 s⁻¹ | kon (human VEGF (hVEGF) [2]): 1.37e+06 M⁻¹ s⁻¹ | Kd (human VEGF (hVEGF) [3]): 0.442 nM | koff (human VEGF (hVEGF) [3]): 0.000607 s⁻¹ | kon (human VEGF (hVEGF) [3]): 1.37e+06 M⁻¹ s⁻¹

B6: R19HCLC2 (Fab, V domains shown)
VH: EEQLVEEGGGLVQPGESLRLSCAASGFEISDYWIHWVRQEPGEGLEWVAGITPAGGYEYYADSVEGRFTISADTSENTAYLQMNELRAEDTAVYYCARFVFFLPYAMDYWGQGELVTVSS
VL: DIQMTQSPSSLSASVGDEVTITCRASQDVSTAVAWYQQKPGEAPKLLIYSASFLYSGVPSRFSGSGSGTDFTLTIESLQPEDAATYYCQQGYGAPFTFGQGTKVEIK
notes: Fab
koff (human VEGF (hVEGF) [2]): 4.67e-05 s⁻¹ | kon (human VEGF (hVEGF) [2]): 889000 M⁻¹ s⁻¹ | koff (human VEGF (hVEGF) [3]): 4.67e-05 s⁻¹ | kon (human VEGF (hVEGF) [3]): 889000 M⁻¹ s⁻¹

B7: R19HCLC4 (Fab, V domains shown)
VH: EEQLVEEGGGLVQPGESLRLSCAASGFEISDYWIHWVRQEPGEGLEWVAGITPAGGYEYYADSVEGRFTISADTSENTAYLQMNELRAEDTAVYYCARFVFFLPYAMDYWGQGELVTVSS
VL: DIQMTQSPSSLSASVGDEVTITCRASQDVSTAVAWYQQKPGKAPKLLIYSASFLYSGVPSRFSGSGSGTDFTLTISSLQPEDAATYYCQQGYGAPFTFGQGTKVEIK
notes: Fab
Kd (human VEGF (hVEGF) [2]): 0.169 nM | koff (human VEGF (hVEGF) [2]): 4.79e-05 s⁻¹ | kon (human VEGF (hVEGF) [2]): 284000 M⁻¹ s⁻¹ | Kd (human VEGF (hVEGF) [3]): 0.169 nM | koff (human VEGF (hVEGF) [3]): 4.79e-05 s⁻¹ | kon (human VEGF (hVEGF) [3]): 284000 M⁻¹ s⁻¹

B8: R19HCLC5 (Fab, V domains shown)
VH: EEQLVEEGGGLVQPGESLRLSCAASGFEISDYWIHWVRQEPGEGLEWVAGITPAGGYEYYADSVEGRFTISADTSENTAYLQMNELRAEDTAVYYCARFVFFLPYAMDYWGQGELVTVSS
VL: DIQMTQSPSSLSASVGDRVTITCRASQDVSTAVAWYQQKPGKAPKLLIYSASFLYSGVPSRFSGSGSGTDFTLTISSLQPEDAATYYCQQGYGAPFTFGQGTKVEIK
notes: Fab
Kd (human VEGF (hVEGF) [2]): 0.0624 nM | koff (human VEGF (hVEGF) [2]): 4.41e-05 s⁻¹ | kon (human VEGF (hVEGF) [2]): 707000 M⁻¹ s⁻¹ | Kd (human VEGF (hVEGF) [3]): 0.062 nM | koff (human VEGF (hVEGF) [3]): 4.41e-05 s⁻¹ | kon (human VEGF (hVEGF) [3]): 707000 M⁻¹ s⁻¹

Source: patent publication US20210115124A1 (Genentech, published 2021)
